From patent US20130197191A1 (Amgen, published 2013)
Like-named read-outs stand apart in the source and are kept apart here.

Columns and labels:
Experiment in all cases: phage panning
[1] = molecular target: T1, recombinant human β-Klotho (human, UniProt Q86Z14 53-996, limits assumed, biotinylated in the AlphaScreen assays (site not stated))
T1 construct: also called rhβ-klotho; huβKlotho-His
T1 sequence: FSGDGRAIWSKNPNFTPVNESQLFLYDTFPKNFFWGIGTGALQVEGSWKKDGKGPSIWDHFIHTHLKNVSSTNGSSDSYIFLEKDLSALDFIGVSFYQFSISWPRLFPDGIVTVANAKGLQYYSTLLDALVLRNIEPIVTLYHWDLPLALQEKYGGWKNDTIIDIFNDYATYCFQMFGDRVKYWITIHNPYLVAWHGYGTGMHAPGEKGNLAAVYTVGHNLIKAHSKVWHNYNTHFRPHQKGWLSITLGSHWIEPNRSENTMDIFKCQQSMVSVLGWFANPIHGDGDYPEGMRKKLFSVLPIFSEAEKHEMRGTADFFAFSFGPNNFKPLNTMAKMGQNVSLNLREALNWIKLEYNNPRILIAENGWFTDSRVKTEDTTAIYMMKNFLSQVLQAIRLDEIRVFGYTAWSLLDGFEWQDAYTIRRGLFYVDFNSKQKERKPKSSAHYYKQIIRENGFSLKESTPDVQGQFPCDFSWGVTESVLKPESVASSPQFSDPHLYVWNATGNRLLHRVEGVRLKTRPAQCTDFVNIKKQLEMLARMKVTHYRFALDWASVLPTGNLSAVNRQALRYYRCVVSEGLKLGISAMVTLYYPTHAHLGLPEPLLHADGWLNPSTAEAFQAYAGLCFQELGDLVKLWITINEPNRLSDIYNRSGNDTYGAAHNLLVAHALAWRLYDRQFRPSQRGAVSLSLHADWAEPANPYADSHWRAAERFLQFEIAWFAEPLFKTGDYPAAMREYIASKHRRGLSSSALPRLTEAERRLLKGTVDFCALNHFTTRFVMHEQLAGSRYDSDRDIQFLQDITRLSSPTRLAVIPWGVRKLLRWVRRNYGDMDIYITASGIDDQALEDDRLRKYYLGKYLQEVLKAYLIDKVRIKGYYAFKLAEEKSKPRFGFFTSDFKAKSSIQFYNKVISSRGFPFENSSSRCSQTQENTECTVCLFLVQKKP

[2] = molecular target: T1, recombinant human β-Klotho; remark: listed apart in the source
[3] = molecular target: T1, recombinant human β-Klotho; remark: listed apart in the source
[4] = molecular target: T1, recombinant human β-Klotho; remark: listed apart in the source
[5] = molecular target: T1, recombinant human β-Klotho; remark: listed apart in the source
[6] = molecular target: T1, recombinant human β-Klotho; remark: listed apart in the source
human FGFR1c-Fc = molecular target: T2, human FGFR1c-Fc (human, UniProt P11362 22-376)
T2 construct: also called huFGFR1c-Fc; huFGFR1c/Fc
T2 sequence: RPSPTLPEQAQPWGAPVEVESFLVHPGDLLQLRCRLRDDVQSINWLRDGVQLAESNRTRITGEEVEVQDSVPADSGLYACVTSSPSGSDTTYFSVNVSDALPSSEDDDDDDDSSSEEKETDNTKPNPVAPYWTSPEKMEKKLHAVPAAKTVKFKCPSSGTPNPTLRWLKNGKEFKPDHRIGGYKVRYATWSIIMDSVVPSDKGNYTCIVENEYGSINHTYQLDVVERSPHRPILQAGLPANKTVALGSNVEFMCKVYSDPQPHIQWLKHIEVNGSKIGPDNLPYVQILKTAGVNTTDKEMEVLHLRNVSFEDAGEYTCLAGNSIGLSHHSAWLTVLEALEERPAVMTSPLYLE

B1: β-Klotho-binding monomer bKmutM28 (designed binder)
chain: CPWFHHFKCRNGQRIPLHLVCDGVPDCGDDSDETDCGDSHILPFSTPGPST
binding result [1]: binds

B2: β-Klotho walked dimer BK_R1c_D14 (designed binder)
chain: CLPDEFQCGSGRCIPQTWVCDGLNDCGDGSDEPPAHCSAPASEPPGSLCRSDEFRCGNGRCIPLTWVCDGEDDCQDSSDETGCTTPGHT
binding result [2]: binds

B3: β-Klotho walked dimer bKWD01 (designed binder)
chain: CLPDEFQCGSGRCIPQHWLCDGLNDCGDGSDEPPAHCSAPASEPPGSLCRAGEFRCSNGRCVPLTWLCDGEDDCQDNSDEKNCAQPT
binding result [2]: binds

B4: β-Klotho walked dimer BK_R1c_D15 (designed binder)
chain: CLPDEFQCGSGRCIPQTWVCDGLNDCGDGSDEPPAHCSAPASEPPGSLCRSNQFTCGNGNCIPQPWVCDGEDDCGDDSDEESCKEHT
binding result [2]: binds

B5: β-Klotho walked dimer BK_R1c_D18 (designed binder)
chain: CPPDEFQCRGTKKCLPLAWVCDGDNDCEDDSDEESCASAVHTCQSNEFRCRSGRCIPQHWLCDGLNDCGDGSDESQQCSAPASEPPGSL
binding result [3]: binds

B6: β-Klotho walked dimer BK_R1c_D24 (designed binder)
chain: CRPDEFPCRSTGRCVPRRWVCDGVDDCGDNSDESLAHCQTPTCQPDEFTCSSGRCIPQPWLCDGLNDCGDGSDEPPAHCSAPASEPPGSL
binding result [4]: binds

B7: β-Klotho walked dimer BK_R1c_D22 (designed binder)
chain: CQPDEFTCSSGRCIPQPWLCDGLNDCGDGSDEPPAHCSAPASEPPGSLCRPDEFRCKNGRCIPQTWVCDGEDDCQDSSDETDCESTVRT
binding result [5]: binds

B8: β-Klotho walked dimer BK_R1c_D05 (designed binder)
chain: CAAGQFRCHNSDTCLPGAWVCDGDNDCGDNSDEASCQKRTCHSFNQFECRNGQCIPLHLVCDGVPDCGDNSDETDCGDSHILPFSTPGPST
binding result [6]: binds

B9: FGFR1c-binding monomer M03mut01 (designed binder)
chain: CGAGLFTCRSTNICISQVWVCDGVDDCEDNSDEDSCSAPASEPPGSL
notes: also called M03mutM01
binding result (human FGFR1c-Fc): binds
